US20080182978A1, “ANTI-NGF ANTIBODIES AND METHODS USING SAME” (RINAT NEUROSCIENCE CORP, priority 2002, published 2008)

Experiments:
TGF-β1 = test: CFA arthritis rats, circulating TGF-β1 in serum (ELISA); format: in vivo, rat; conditions: D24; for serum TGF-β1 level: arthritic rats, E3 1 mg/kg or 911 10 mg/kg i.v. D14+D19, indomethacin 3 mg/kg p.o.
Experimental: On Day 24 (after paw volume and arthritis index measurements and test vocalization), under general anaesthesia using isoflurane (in a mixture of oxygen and nitrous oxide), the blood samples (about 800-1000 μl) was collected by capillary action with a micropipette from retroorbital sinus.
Measurement of circulating TGF-β1 (groups 1-2-3-4-5): A part of blood sample was collected in micro tubes for serum preparation at ambient temperature. Following sample collection, blood was mixed and allowed to clot for 30 minutes prior to the centrifugation. The tubes were centrifuged at about 6000 g for 3 minutes. Each serum sample (at least 100 μL, except for rat #52 and #53) was aliquoted and stored at −20° C. until sample activation for TGF-β1 analysis. These aliquots (50 vials) were kept for a period of 6 months starting from the end of the study. […] TGF-β1 levels were measured using human TGF-β1 ELISA kit (ref. DB100, Batch 212258 and 213610, R&D Systems—France).
All results were reported as Mean ±S.E.M. of 10 rats in each group at each time point. Paw volume was expressed in ml calculated from the mean value of the right and left paw volume. Arthritis index was calculated from the sum of the score obtained for each of the 4 paws. The nociceptive response was evaluated by the intensity of the level of vocalization recorded for each animal (mean of 4 values: 2 times/paw) in mV. The percentage inhibition of the nociceptive response was calculated from the mean value of the vehicle-treated arthritic group [(mean value of vehicle-treated arthritic group−mean value of treated arthritic group/mean value of vehicle-treated arthritic group)*100]. […] Radiological index for each parameter (demineralization, erosions, periostal reaction, soft tissue damage, space joint, osteogenesis deformity) and total radiological index (total score) were calculated from the sum of the scores obtained for each parameter. […]

[1] = system: complete Freund's adjuvant (CFA)-induced chronic arthritis; test: CFA arthritis rats, arthritis index (inflammation score); format: in vivo, rat; conditions: for change of arthritis index compared to vehicle-treated arthritic group: E3 1 mg/kg or 911 10 mg/kg i.v. D14+D19, indomethacin 3 mg/kg/day p.o.; for arthritis index (score): arthritic rats
Experimental: Five groups of 10 animals (5-weeks old male Lewis rats-LEWIS Lew/Ico, from Charles River Laboratories—Belgium) each were included in this study: Group 1: non arthritic rats/saline (vehicle), i.v. bolus, n=10; Group 2: arthritic rats/saline (vehicle), i.v. bolus, n=10; Group 3: arthritic rats/Indomethacin 3 mg/kg, p.o daily over 10 days, n=10; […]; Group 5: arthritic rats/911, 10 mg/kg, i.v. bolus, n=10. The doses were expressed in terms of free active substance (mg/kg). E3 and 911 were extemporaneously prepared in saline from the stock solution to the desired concentration. […]. All diluted solutions (before i.v. injection) were sterilized using a sterile filter unit of 0.20.μm. pH and osmolarity values of diluted solutions were measured before each i.v. injection. Before the first i.v., osmolarity (mosm/L) for saline, E3, and 911 were 278, 269, and 308 respectively; pH for saline, E3, and 911 were 5.93, 6.76, 6.71 respectively. Before the second i.v., osmolarity (mosm/L) for saline, E3, and 911 were 280, 270, and 309 respectively; pH for saline, E3, and 911 were 5.86, 6.72, and 6.59 respectively.
E3 or 911 or saline were administered by i.v. bolus injection on Day 14 and Day 19 after arthritis induction in a coded and random order with a volume of 5 mL/kg. The non arthritic group was given by i.v. bolus injection of saline on Day 14 and Day 19 with a volume of 5 mL/kg. Indomethacin was extemporaneously prepared in 1% methylcellulose. Indomethacin was administered by oral route (p.o.) once daily over 10 days from Day 14 to Day 23 after arthritis induction in a coded and random order with a volume of 10 mL/kg.
Arthritis index was evaluated using an inflammation score for each hind and forepaw (arthritic rats): Score 0: normal aspect; Score 1: erythema; Score 2: erythema with slight edema; Score 3: strong inflammation without ankylosis; Score 4: ankylosis. This evaluation was performed at the following times (after induction of arthritis): Day 14 (before i.v. bolus or p.o. administration); and Day 24 (5 days after the last i.v. bolus injection or 24 h after the last p.o. administration). All measurements were performed between 2:00 and 3:00 pm (D 14), 8:00 and 9:00 am (D 24). All the data were collected and stored by the WinDas software.
All results were reported as Mean ±S.E.M. of 10 rats in each group at each time point. Paw volume was expressed in ml calculated from the mean value of the right and left paw volume. Arthritis index was calculated from the sum of the score obtained for each of the 4 paws. The nociceptive response was evaluated by the intensity of the level of vocalization recorded for each animal (mean of 4 values: 2 times/paw) in mV. The percentage inhibition of the nociceptive response was calculated from the mean value of the vehicle-treated arthritic group [(mean value of vehicle-treated arthritic group−mean value of treated arthritic group/mean value of vehicle-treated arthritic group)*100]. Body weight was expressed in grams. Hindpaws (left and right) weight was expressed in grams. Cytokine levels (IL-6, IL-1β, TNF-α and TGF-β1) of each hind paw was expressed in pg/ml. Circulating levels of TGF-β1 was expressed in pg/ml. Radiological index for each parameter (demineralization, erosions, periostal reaction, soft tissue damage, space joint, osteogenesis deformity) and total radiological index (total score) were calculated from the sum of the scores obtained for each parameter. The inter-group significances of the deviations between the values of vehicle-treated group (arthritic rats) and vehicle-treated group (non arthritic rats) were assessed by the Student t test or Mann-Whitney Rank Sum Test when equal variance or normality test failed. The inter-group significances of the deviations between the values of vehicle-treated group (arthritic rats) and E3- and 911- and Indomethacin-treated groups were assessed by the 1-way analysis of variance ANOVA followed by the non-paired Dunnett t test. […]

Molecule	serum TGF-β1 level (TGF-β1)	decrease of serum TGF-β1 level compared to vehicle-treated arthritic group (TGF-β1; indomethacin 3 mg/kg/day p.o. 10 days)	change of arthritis index compared to vehicle-treated arthritic group ([1]; D24)	arthritis index (score) ([1]; D14 (before dosing))	anti-inflammatory effects in arthritis model (conclusion) ([1]; E3 1 mg/kg i.v., 911 10 mg/kg i.v., D14+D19)	arthritis index (score) ([1]; E3 1 mg/kg or 911 10 mg/kg i.v. D14+D19, indomethacin 3 mg/kg/day p.o. 10 days, D24)
COc1ccc2c(c1)c(CC(=O)O)c(C)n2C(=O)c1ccc(Cl)cc1 [Indomethacin, reference compound]	57222.2 ± 3194.1 pg/mL	about 1.5 times	about −8.0	8.7±0.6	–	–
E3: humanized, affinity matured anti-NGF antagonist antibody; variable regions SEQ ID NO:1 and 2; human IgG2a (A330P331 to S330S331), kappa (antibody, V domains shown, human IgG2a constant (A330S/P331S) and kappa constant missing) VH: QVQLQESGPGLVKPSETLSLTCTVSGFSLIGYDLNWIRQPPGKGLEWIGIIWGDGTTDYNSAVKSRVTISKDTSKNQFSLKLSSVTAADTAVYYCARGGYWYATSYYFDYWGQGTLVTVS VL: DIQMTQSPSSLSASVGDRVTITCRASQSISNNLNWYQQKPGKAPKLLIYYTSRFHSGVPSRFSGSGSGTDFTFTISSLQPEDIATYYCQQEHTLPYTFGQGTKLEIKRT	69408.8 ± 3926.7 pg/mL	–	did not affect the arthritis index	10.2±0.4	did not show significant anti-inflammatory effects	11.4±0.4
